This is an account of results in patent US12517114B2, “Primary gastrointestinal stromal tumor cell culture medium, culture method and application thereof” (PRECEDO PHARMACEUTICALS CO., LTD, priority 2021, dated 2026).

For this assay, the system named is primary gastrointestinal stromal tumor cells (GIST-1, GIST-2, GIST-3, GIST-4). Description: Screening of factors added to the culture medium: cell count after 14 days of culture. The format is cell-based, human. Conditions: for Level of promoting cell proliferation: additive at the concentration of Table 1 in basic medium vs basic medium, 14 days, 2% oxygen, Collagen I coated plate, four patient samples. The procedure: Rat tail collagen type I (Collagen type I, manufactured by Corning Inc.) was diluted with ultrapure water in a ratio of 1:50 to prepare a collagen diluent. The collagen diluent was added 500 μl/well into a 24-well culture plate to completely cover the bottom of the culture plate wells. After standing in a incubator at 37° C. for 1 hour, the collagen diluent was removed to provide a culture plate coated with collagen.
First, a basic medium was prepared. To a commercial DMEM/F-12 medium, GlutaMAX-I (manufactured by Thermo Fisher […]) was added at a dilution ratio of 1:100, insulin-containing culture additive Insulin-Transferrin-Selenium-Ethanolamine (ITS-X, manufactured by Gibco) was added at a dilution ratio of 1:100, a ROCK kinase inhibitor Y27632 (manufactured by Sigma) was added at a final concentration of 10 µM, and commercial Primocin solution (manufactured by InvivoGen) (commercial product in concentration of 50 mg/ml) was added at a dilution ratio of 1:500, to obtain the basic medium.
Next, different types of additives (Table 1) were added to the basic medium to prepare culture mediums for gastrointestinal stromal tumor cells containing different components. The culture mediums with different components were added at a volume of 500 μl/well to 24-well plates coated with Collagen I, with 3 wells for per medium formulation. The GIST cells (GIST-1) isolated from GIST tissues in Section (1) of this example were inoculated in the 24-well culture plate coated with Collagen I at a cell density of 3×10^4/well, and were cultured under different medium formulations at 37° C., under 5% CO2 concentration and 2% oxygen concentration. The mediums were renewed every 3 days after the start of the culture. After 14 days of culture, cell counts were performed.
The tumor cells isolated from the other three gastrointestinal stromal tumor tissue samples were also cultured and counted in the same manner as above.

B1: fibroblast growth factor 10: receptor tyrosine kinase ligand, medium additive (R&D) (protein, UniProt O15520 38-208, looked up)
Fibroblast growth factor 10: QALGQDMVSPEATNSSSSSFSSPSSAGRHVRSYNHLQGDVRWRKLFSFTKYFLKIEKNGKVSGTKKENCPYSILEITSVEIGVVAVKAINSNYYLAMNKKGKLYGSKEFNNDCKLKERIEENGYNTYASFNWQHNGRQMYVALNGKGAPRRGQKTRRKNTSAHFLPMVVHS
For the molecule B1, the “Level of promoting cell proliferation” value is “+”. Under “additive in basic medium, in at least three cases”, the “Effect on proliferation of primary gastrointestinal stromal tumor cells (in words)” value is on record as “promote the proliferation”.

B2: platelet-derived growth factor BB: receptor tyrosine kinase ligand, medium additive (R&D) (protein, UniProt P01127 82-190, looked up)
Platelet-derived growth …: SLGSLTIAEPAMIAECKTRTEVFEISRRLIDRTNANFLVWPPCVEVQRCSGCCNNRNVQCRPTQVQLRPVQVRKIEIVRKKPIFKKATVTLEDHLACKCETVAAARPVT
Take B2: the “Level of promoting cell proliferation” value is “+”.
